The values below come from the supplement of paper PMC10567573.

A short description of this series: protein stability index of a GFP-peptide fusion (GPS, HEK-293T) (PSI 1-6); higher = more stable.
Where [1] appears, read: treatment: DMSO, c terminus: native.
Where [2] appears, read: treatment: MLN4924 1 uM, 8 h, c terminus: native.
Where [3] appears, read: treatment: DMSO, c terminus: a fixed tail appended.
Where [4] appears, read: treatment: MLN4924 1 uM, 8 h, c terminus: a fixed tail appended.

± gives the standard deviation.
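Note: 24-mer peptide tiles fused after GFP, lentivirally expressed, FACS-sorted into six equal bins by GFP/DsRed ratio, decoded by Illumina sequencing, PSI is the read-weighted mean bin number.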

Consider WQLYYSKKLLDSWFTSTQEKKHK [JAGN1], for which the protein stability index worked out at 2.28 ± 0.49 under setting [1] and 2.7 ± 0.29 under setting [2].
In the case of WRWTGFNFGFDLLVTYTNRYIIFK [GMCL1], the protein stability index stood at 2.63 ± 0.58 under setting [3] and 3.02 ± 0.45 under setting [4].
For WTALHFAAQNGDESSTRLLLEKNA [RIPK4] the same measures were 3.4 ± 0.08 and 3.28 ± 0.33.
For WVFHHYVSTFLSGVMLTWPDGLMY [TMEM120A], in that order: 3.14 ± 0.17 and 3.11 ± 0.24.
Sequence WYSRLQACQWGGNFLAFSVRRVS gave a protein stability index under setting [1] of 3.17 ± 0.58 and a protein stability index under setting [2] of 2.15 ± 0.83.
On to YDIEVNTRRAQADLAYQLQVAKTK [FLOT1], for which the protein stability index reads like this: under setting [3], 4.35 ± 0.18; under setting [4], 4.33 ± 0.19.
For the sequence YDPKTNQWSSDVAPTSTCRTSVGV [KLHL20], the protein stability index is 2.86 ± 0.44 under setting [3] and 3.04 ± 0.19 under setting [4].
For YEGGHIKGAVNLHMEEEVEDFLLK [CDC25A] the same measures were 4.6 ± 0.42 and 4.51 ± 0.076.
For YGRSWESYSSCGDFHYCDREHVCR [RBMY1A1] the same measures were 2.65 ± 0.72 and 2.66 ± 0.35.
Regarding YISPELCEGKPYNQKSDIWALGCV [NEK8], the protein stability index by setting is: under setting [3], 2.19 ± 0.41; under setting [4], 2.01 ± 0.19.
For YLRSKLCSLYENDCIFDKFECAWN [PPP2R2C], in that order: 2.81 ± 0.57 and 2.61 ± 0.66.
For YNSEILEEAISVVMSGKMSVSKAQ [LCOR], in that order: 2.96 ± 0.17 and 3.03 ± 0.41.
On to YPCLEKPRIWSLAHTATASAVEGA [IRX6], for which the protein stability index is, setting by setting: under setting [3], 2.8 ± 0.41; under setting [4], 2.98 ± 0.49.
For YPTCGIGYPVSSAFAFQNTFPHSI [SASS6], in that order: 2.66 ± 0.55 and 2.49 ± 0.41.
For YQELLGLSFEQMTDAHVWNKSVTL [NLN], in that order: 2.37 ± 0.093 and 2.3 ± 0.28.
Turning to YSLFVGLFLFGYKFSGLYILSFTV [SLC35F2], the protein stability index runs as follows: under setting [3], 3.24 ± 0.39; under setting [4], 3.07 ± 0.39.
Take YSLRILIGDPPHHDHHDEFCLMP [BEX5]: the protein stability index by setting is: under setting [1], 2.62 ± 0.4; under setting [2], 2.03 ± 0.35.
On to YSNTDANILFYVVGLRNTLTRIRK [GLT8D2], for which the protein stability index reads like this: under setting [3], 2.3 ± 0.61; under setting [4], 2.45 ± 0.3.
For YTGEIKISENLDYEETGFYEIEIQ [PCDHGA10], in that order: 2.97 ± 0.18 and 2.87 ± 0.46.
For YTSELYPTVIRNVGLGTCSMFSRV [SLC22A15] the same measures were 2.13 ± 0.82 and 1.77 ± 0.12.
For YVDVVFANRPDPNTPMEETVRAMT [KCNAB2], in that order: 2.66 ± 0.34 and 3.09 ± 0.7.
On to YYTTPIYRFRMKCHLCVNYIEMQT [YJU2B], for which the protein stability index is, setting by setting: under setting [3], 2.73 ± 0.43; under setting [4], 2.51 ± 0.64.
